# Source: US12208130B2, “Treatment of women affected with polycystic ovary syndrome” (INSTITUT NATIONAL DE LA SANTE ET DE LA RECHERCHE MEDICALE …, priority 2017, dated 2025)
# Where a SMILES comes first, the peptide text is derived from it. [ ]: non-standard residue; d: D form. dPhe(4-Cl) = N[C@H](Cc1ccc(Cl)cc1)C(=O)O; d2Nal = N[C@H](Cc1ccc2ccccc2c1)C(=O)O; dCit = NC(=O)NCCC[C@@H](N)C(=O)O; d3Pal = N[C@H](Cc1cccnc1)C(=O)O
# B1: proAMH: AMH proprotein (Origene Technologies, Cat # TP308397), injected prenatally 0.12 mg/Kg/d (protein, UniProt P03971 25-560, looked up)
# pro-form: LRAEEPAVGTSGLIFREDLDWPPGSPQEPLCLVALGGDSNGSSSPLRVVGALSAYEQAFLGAVQRARWGPRDLATFGVCNTGDRQAALPSLRRLGAWLRDPGGQRLVVLHLEEVTWEPTPSLRFQEPPPGGAGPPELALLVLYPGPGPEVTVTRAGLPGAQSLCPSRDTRYLVLAVDRPAGAWRGSGLALTLQPRGEDSRLSTARLQALLFGDDHRCFTRMTPALLLLPRSEPAPLPAHGQLDTVPFPPPRPSAELEESPPSADPFLETLTRLVRALRVPPARASAPRLALDPDALAGFPQGLVNLSDPAALERLLDGEEPLLLLLRPTAATTGDPAPLHDPTSAPWATALARRVAAELQAAAAELRSLPGLPPATAPLLARLLALCPGGPGGLGDPLRALLLLKALQGLRVEWRGRDPRGPGRAQRSAGATAADGPCALRELSVDLRAERSVLIPETYQANNCQGVCGWPQSDRNPRYGNHVVLLLKMQVRGAALARPPCCVPTAYAGKLLISLSEERISAHHVPNMVATECGCR
# modifications: pro-form
# notes: AMH proprotein (Origene Technologies, Cat # TP308397), injected prenatally 0.12 mg/Kg/d
# Test system: C57BL6/J (B6) dams and their female offspring
# Assay: Plasma testosterone, LH and LH pulsatility in adult diestrus female offspring
# Type: in vivo, mouse
# Experimental: FIGS. 3A-3J-4. Prenatal AMH treatment leads to hyperandrogenism and elevation in LH secretion/pulsatility. (FIG. 3A) Anogenital distance (AGD) was measured over post-natal days (P) 30, 35, 40, 50, and 60 in adult female control (n=6-14), PAMH (n=11-19), PAMH+GnRH antag (n=10), and GnRH antag (n=4) mice. […] One-way ANOVA and Tukey's multiple comparison post hoc test, F(19-183)=130.1, ***P<0.0001 among treatment groups and ages (P30, F(3, 43)=84.48, *P<0.05, ***P<0.0001; P35, F(3, 43)=116.9, *P<0.05, ***P<0.0001; P40, F(3, 43)=207.5, *P<0.05, ***P<0.0001; P50, F(3,27)=72.69, ***P<0.0001; P60, F(3,27)=110.5, ***P<0.0001). Bars from left to right in each group: Control, PAMH, PAMH+GnRH antag, GnRH antag. (FIG. 3B) Plasma testosterone was measured in adult females (P60) in diestrus. […] One-way ANOVA and Tukey's multiple comparison post hoc test, F(2,12)=28.67, ***P<0.0001. Bars from left to right: Control, PAMH, PAMH+GnRH antag. (FIG. 3C) Plasma LH was measured in adult females (P60) in diestrus. […] One-way ANOVA and Tukey's multiple comparison post hoc test, F(2,24)=257.3, *P<0.05, ***P<0.0001. Bars from left to right: Control, PAMH,
# PAMH+GnRH antag. (FIG. 3D) Schematic representation of tail-tip blood sampling in adult diestrus female mice (3-4 months old). (FIG. 3E) Tail blood was collected every 10 min for 2 h and LH measured from 10 a.m-12 p.m in adult (P60) diestrus females (Control, n=8; PAMH, n=10; PAMH+GnRH antag, n=9; One-way ANOVA and Tukey's multiple comparison post hoc test, F(2,24)=57.06, *P<0.05, ***P<0.0001). Bars from left to right: Control, PAMH, PAMH+GnRH antag. (FIGS. 2F-1, 2F-2, 2F-3) Representative graphs for LH pulsatility over 2-hr in one female adult (P60) mouse of each treatment. Asterisks in (FIG. 3F) indicate the number of LH pulses/2-hr. (FIG. 3G) Mean circulating testosterone and LH levels were analyzed in pregnant PBS-treated (n=4) and AMH-treated (n=4) dams at embryonic day (E) 19.5 of gestation. […] (FIG. 3H) Relative mRNA expression of placental Cyp191a (aromatase) in control (n=4) and AMH (n=4)-treated pregnant animals at E19.5. Cyp191a expression in the placenta is higher in AMH-treated pregnant dams as compared to control-treated pregnant dams (Unpaired Student's t-test, t(6)=5.414, **P<0.005). Values are expressed as relative to the mean of each treatment. All values are expressed as mean±s.e.m. (FIGS. 3I-1, 3I-2, 3I-3, 3I-4) Dams were injected from E16.5 to E18.5 with either PBS (vehicle, n=9-11), AMH (n=8-10), AMH+GnRH antag (n=5) and trunk blood was collected at E19.5 for hormonal measurements by ELISA. Data were combined from at least two independent experiments. In FIGS. 3I-1, 3I-2, 3I-3, 3I-4: left bar: vehicle; middle bar: AMH; right bar: AMH+GnRH antagonist. […]
# [1] = dams i.p. 0.12 mg/Kg/d E16.5-E18.5, adult female offspring in diestrus vs control
molecule,measurement,setting,value
"CC(=O)N[C@H](Cc1ccc2ccccc2c1)C(=O)N[C@H](Cc1ccc(Cl)cc1)C(=O)N[C@H](Cc1cccnc1)C(=O)N[C@@H](CO)C(=O)N[C@@H](Cc1ccc(O)cc1)C(=O)N[C@H](CCCNC(N)=O)C(=O)N[C@@H](CC(C)C)C(=O)N[C@@H](CCCNC(=N)N)C(=O)N1CCC[C@H]1C(=O)N[C@H](C)C(N)=O [Cetrorelix acetate, Ac-D-2Nal-D-Phe(4-Cl)-D-3Pal-Ser-Tyr-D-Cit-Leu-Arg-Pro-D-Ala-NH2] (Ac-[d2Nal][dPhe(4-Cl)][d3Pal]SY[dCit]LRP[dA]-NH2)",PCOS-like neuroendocrine traits in the offspring,prenatal co-treatment of AMH with the GnRH antagonist,prevented the appearance
B1,plasma LH,[1],increased
same,plasma testosterone,[1],increased
same,LH pulse frequency / pulsatility,"dams i.p. 0.12 mg/Kg/d E16.5-E18.5, adult female offspring in diestrus, tail blood every 10 min for 2 h",constitutively high LH pulsatility
